From patent publication US20170224833A1, “SELF-ASSEMBLING MOLECULES THAT ACCUMULATE IN ACIDIC TUMOR MICROENVIRONMENTS” (OHIO STATE INNOVATION FOUNDATION, priority 2014, published 2017)
Residues, ends and D or L forms follow the SMILES beside them. *: point of attachment. Palmitoyl = CCCCCCCCCCCCCCCC(=O)*

What was measured:
[1] = pH titration of peptide amphiphiles (pKa); format: physicochemical; conditions: 10 μM
Protocol: The titration measurements were conducted on 10 μM peptide amphiphile solutions prepared in 150 mM NaCl and 2.2 mM CaCl2 using milli-Q water. The solution was heated at 80° C. for 30 minutes followed by slow cooling at room temperature. The pH of the solution was then adjusted to 4 using HCl. Finally, an Accumet XL15 pH meter (Fisher Scientific) coupled with an Orion Ross Ultra semi-micro electrode (8103BNUWP, Thermo Scientific) was used to track changes in pH of the solution as NaOH solution was added in small increments. pKa values were obtained from the second inflection points of the first derivative plots of the titration data. The first transition corresponds to neutralization of excess HCl. The calculated pKas reflect the average pKa for all four glutamic acids.

[2] = Critical aggregation concentration (CAC), pyrene 1:3 method; format: physicochemical
Protocol: For the CAC measurements, a series of solutions of the PA with concentrations ranging from 10 nM to 300 μM were prepared using serial dilutions in 150 mM NaCl and 2.2 mM CaCl2. The final concentration of pyrene in each solution was fixed to be 1.23 μM. This was followed by pH adjustment of the solutions using careful additions of HCl or NaOH. 70 μL of each solution was transferred to a 96-well plate and the fluorescence emission of pyrene was monitored using a hybrid reader fluorimeter (BioTek Synergy H4) at room temperature. The excitation wavelength was set at 335 nm. The ratio of the intensities of emissions at 376 nm and 392 nm were then plotted as a function of the PA concentration (log scale). The CAC was determined from an abrupt change in the slope of the plot using the least-squares fitting technique.
For CAC measurements, a series of solutions of either pure PA or PA mixture with concentrations ranging from 100-300 nM to 500-700 μM were prepared using serial dilutions in 150 mM NaCl and 2.2 mM CaCl2 (and 1.8 mM 20 kDa PEG in select samples). The final concentration of pyrene in each solution was fixed to be 4.5 μM. This was followed by pH adjustment of the solutions using careful additions of HCl or NaOH. 100 µL of each solution was transferred to a 96-well plate and the fluorescence emission of pyrene was monitored using a hybrid reader fluorimeter (BioTek Synergy H4) at room temperature. The excitation wavelength was set at 335 nm. The ratio of the intensities of emissions at 376 nm and 392 nm were then plotted as a function of the PA concentration (log scale). The CAC was determined from an abrupt change in the slope of the plot using the least-squares fitting technique.
The pyrene 1:3 method was used to determine CAC for the PAs (Aguiar, J., et al. J. Colloid Interface Sci. 2003 258:116-122). For both PA71 and PA68, CAC measurements were performed at various pH values (5-10). Samples of high PA concentration (300-750 μM) were prepared in deionized water containing 150 mM NaCl and 2.2 mM CaCl2. These samples were raised to 9 or greater pH using NaOH and heated at 80° C. for 30 minutes. Samples were then allowed to cool to room temperature and pH was altered to the desired value using dilute NaOH and HCl. Solutions containing only aqueous 150 mM NaCl and 2.2 mM CaCl2 and solutions containing these salts, a 1:1 solution of water and methanol, and 62 μM pyrene were also prepared. Each of these solutions was divided into various portions and adjusted to appropriate pH values. The PA solutions were serially diluted with the corresponding salt solutions with a total of 125 μL at each concentration. 5 μL of the pyrene containing solution as added to each dilution for a final pyrene concentration of 2.4 μM. Each diluted sample was probed for fluorescence with an excitation wavelength of 335 nm. Fluorescence was recorded with particular attention paid to the 376 nm and 392 nm emission peaks. The ratio of these two peaks was plotted versus PA concentration on a log scale. The CAC was determined from an abrupt change in the slope of the plot using the least-squares fitting technique.
Critical aggregation concentration (CAC) measurements were carried out to determine the concentration at which micelles or nanofibers begin to form by using the pyrene 1:3 method, (citation) All samples were basified to a pH of 10, stirred at 90° C. for 30 minutes in an oil bath and cooled to room temperature. HCl and NaOH were then added to set the PA solution specific pH value. PAs with concentrations ranging from 100 μM to 500 μM were serial diluted with 150 mM NaCl and 2.2 mM CaCl2. A pyrene solution was then added to each of the diluted samples, for a final pyrene concentration of 4.5 μM. 100 μL of each serial diluted sample were transferred into a 96-well plate and the fluorescence emission of the pyrene was monitored by a hybrid reader fluorimeter (BioTek Synergy H4) at room temperature with an excitation wavelength of 335 nm. […]

[3] = CD spectroscopy in artificial mouse serum (150 mM NaCl, 2.2 mM CaCl2, 1.8 mM 20 kDa PEG); format: physicochemical; conditions: both pure and artificial mouse serum
Protocol: Measurements were done on a Jasco-815 Circular Dichroism spectrometer using 0.5-1 cm path length quartz cuvettes. 500-10 μM of either pure PA or PA mixtures were prepared in 150 mM NaCl and 2.2 mM CaCl2 (and 1.8 mM 20 kDa PEG in select samples) by dilution from a concentrated PA stock (0.5-1 mM, pH 9). Double de-ionized Milli-Q water was used for preparing all solutions. The solutions were then heated at 80° C. for 30 minutes in a water bath and gradually cooled to room temperature. An Accumet XL15 pH meter (Fisher Scientific) coupled with an Orion Ross Ultra semi-micro electrode (8103BNUWP, Thermo Scientific) was used to adjust the pH of the solution to the desired value followed by collection of the CD spectra. Each trace shown was averaged over 3 accumulations and was baseline subtracted using aqueous solutions containing salts only. All spectra are cut-off below 200 nm due to absorption by NaCl and CaCl2. The same procedure was followed for the salt control samples with 3.0 and 4.0 mM CaCl2.
Finally, a medium that accurately replicated the ionic strength and the crowded environment of pure serum and enabled characterization of the PA self assembly behavior using CD and CAC measurements without interference from protein signals was created. This artificial serum solution contains 1.8 mM of 20 kDa PEG, 150 mM NaCl and 2.2 mM CaCl2. […]

[4] = 150 mM NaCl, 2.2 mM CaCl2; previously found (Ghosh 2012); cited from earlier work
[5] = pH 5, 150 mM NaCl, 2.2 mM CaCl2

CCCCCCCCCCCCCCCC(=O)N[C@H](C(=O)N[C@@H](C)C(=O)N[C@@H](C)C(=O)N[C@@H](C)C(=O)N[C@@H](CCC(=O)O)C(=O)N[C@@H](CCC(=O)O)C(=O)N[C@@H](CCC(=O)O)C(=O)N[C@@H](CCC(=O)O)C(N)=O)[C@@H](C)CC [PA1] (Palmitoyl-IAAAEEEE-NH2)
glutamic acids in the deprotonated form at the transition [1]: 98.8%
critical aggregation concentration (CAC) ([2]; pH 6.6): 6.0 µM

Palmitoyl-AIAAEEEEK(DO3A:Gd)-NH2 (Palmitoyl-AIAAEEEEK(DO3A)-NH2; also: DO3A chelates Gd) [PA71]
CAC (below the detectable limit) ([2]; all pH values tested except pH 10): 200 to 300 nM
CAC [2, 5]: 1.3 µM
CAC, fold lower than PA5 ([2]; pH ~7): > 6

palmitoyl-YYAAEEEEEK(DO3A:Gd)-NH2 (Palmitoyl-YYAAEEEEEK(DO3A)-NH2; also: DO3A chelates Gd) [PA74]
CAC higher than PA75 ([2]; pH 6): ~500%
CAC ([2]; pH 7.06): 9.3 µM
CAC higher than PA75 ([2]; pH 8): 5%
CAC ([2]; pH 9.02): 21.6 µM

Palmitoyl-AAAIEEEE-NH2 (SMILES CCCCCCCCCCCCCCCC(=O)N[C@@H](C)C(=O)N[C@@H](C)C(=O)N[C@@H](C)C(=O)N[C@H](C(=O)N[C@@H](CCC(=O)O)C(=O)N[C@@H](CCC(=O)O)C(=O)N[C@@H](CCC(=O)O)C(=O)N[C@@H](CCC(=O)O)C(N)=O)[C@@H](C)CC) [PA70]
aggregation state by pyrene 1:3 method ([2]; all pH and concentration values): in the aggregated state across all pH and concentration values

CCCCCCCCCCCCCCCC(=O)N[C@@H](C)C(=O)N[C@H](C(=O)N[C@@H](C)C(=O)N[C@@H](C)C(=O)N[C@@H](CCC(=O)O)C(=O)N[C@@H](CCC(=O)O)C(=O)N[C@@H](CCC(=O)O)C(=O)N[C@@H](CCC(=O)O)C(N)=O)[C@@H](C)CC [PA68] (Palmitoyl-AIAAEEEE-NH2)
CAC, times lower than PA1 ([2]; comparable pH values): 3-5
CAC [2, 5]: 1.1 µM
CAC ([2]; pH 10, 150 mM NaCl, 2.2 mM CaCl2): 7.5 µM

Palmitoyl-IAAAEEEEK(DO3A:Gd)-NH2 (Palmitoyl-IAAAEEEEK(DO3A)-NH2; also: DO3A chelates Gd) [PA5]
morphology across pH [3]: remains nanofibers across all measured pH values
pH of concentration independent transition from spherical micelles to nanofibers [4]: 6.0
